Assay results: US7094891 (CENTER FOR TRANSLATION RESEARCH IN CANCER, dated 2006)

Molecular target: T1, Human Replication Protein A 32 (RPA32) (human, UniProt P15927 1-270, limits assumed)
T1 construct: Used in the yeast two-hybrid system; also called Replication Protein A 32KD subunit; 32-kDa middle subunit of RPA
Test: yeast two-hybrid system (method named in paragraph 31)

T1 sequence (P15927 whole entry): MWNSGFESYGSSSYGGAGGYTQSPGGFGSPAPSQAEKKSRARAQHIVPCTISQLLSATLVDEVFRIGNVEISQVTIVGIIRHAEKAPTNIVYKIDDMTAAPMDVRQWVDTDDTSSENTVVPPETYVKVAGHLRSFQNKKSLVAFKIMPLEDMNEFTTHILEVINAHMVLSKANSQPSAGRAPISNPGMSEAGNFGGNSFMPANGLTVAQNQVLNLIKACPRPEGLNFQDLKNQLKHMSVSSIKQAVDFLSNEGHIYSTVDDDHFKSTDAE

B1: replication protein A binding transcriptional activator 1 (RBT1) (other)
chain: MEGGLKRKHSDLEEEEERWEWSPAGLQSYQQALLRISLDKVQRSLGPRAPSLRRHVLIHNTLQQLQAALRLAPAPALPPEPLFLGEEDFSLSATIGSILRELDTSMDGTEPPQNPVTPLGLQNEVPPQPDPVFLEALSSRYLGDSGLDDFFLDIDTSAVEKEPARAPPEPPHNLFCAPGSWEWNELDHIMEIILGS
notes: Open reading frame of 196 amino acids
Question: Does B1 bind?
Answer: binds
